# B1: HDV Ribozyme (parent)
# chain: GGCCGGCAUGGUCCCAGCCUCCUCGCUGGCGCCGGCUGGGCAACAUUCCGAGGGGACCGUCCCCUCGGUAAUGGCGAAUGGGACCCA
# Variants of: B1
# Experiment: self-cleavage, relative activity (ratio to wild type); higher = more cleavage; co-transcriptional
row,Variant,self-cleavage
1,A43G A45C,0.0504
2,A43G A45U,0.584
3,A43G A87U,0.554
4,A43G A70C,0.9
5,A43G A70U,0.743
6,A42U G68C,0.397
7,A42U G68U,0.162
8,A42U G68A,0.407
9,A43C G76U,0.95
10,A43C G76C,0.604
11,A42U U60A,0.665
12,A42C G53A,0.289
13,A42C G73U,0.0791
14,A42U C48A,0.485
15,A42U C48U,0.506
16,A42G A78U,0.162
17,A43G C86U,0.739
18,A43U A51C,0.525
19,A43U A51G,0.911
20,A43U A51U,0.332
21,A42C C57U,0.203
22,A42C C57G,0.237
23,A42G G59C,0.703
24,A43C G82U,0.0545

row,Variant,self-cleavage
1,A43C G82A,0.185
2,A43C C58G,0.443
3,A43C C58U,0.671
4,A42U A70C,0.636
5,A42U A70G,0.571
6,A42G U65G,0.536
7,A42G U65A,0.703
8,A42C C85U,0.415
9,A42G A77G,0.208
10,A42U C75U,0.0665
11,A42U C75G,0.125
12,A42G C57U,0.527
13,A42G C64U,0.45
14,A42U A83G,0.177
15,A42U A83U,0.142
16,A42U A83C,0.119
17,A43G G67A,0.804
18,A43G G67U,0.527
19,A42G A70U,0.365
20,A42G A71U,0.502
21,A43G U60A,0.594
22,A43G U60G,0.755
23,A42C G68C,0.198
24,A43U A45G,0.57

row,Variant,self-cleavage
1,A43G A71G,0.68
2,A42U A71C,0.342
3,A42U A71G,0.431
4,A43G G73A,0.219
5,A43G C84U,0.426
6,A42U G53C,0.437
7,A42U G53U,0.698
8,A42G G82C,0.0396
9,A42G G82U,0.0504
10,A42C A70U,0.312
11,A42C A70C,0.0875
12,A43G C48A,0.81
13,A42G C66U,0.591
14,A42C A51C,0.0594
15,A43C C75G,0.314
16,A43C C75U,0.172
17,A43C C75A,0.298
18,A43C C86A,0.443
19,A43C C86G,0.399
20,A43G G82C,0.131
21,A42G G81A,0.106
22,A42G G81C,0.0386
23,A43G C62A,0.554
24,A42G G80A,0.0997

row,Variant,self-cleavage
1,A42G U46G,0.0875
2,A43C C49U,0.684
3,A43C C49A,0.172
4,A42U,0.529
5,A42G,0.562
6,A42C C49A,0.262
7,A42C C49U,0.115
8,A42C G55A,0.578
9,A42G A45G,0.383
10,A42G A45U,0.598
11,A42C G50C,0.375
12,A42C G50U,0.386
13,A42U A43U,0.604
14,A42U A43C,0.208
15,A43C G50U,0.432
16,A42U G50U,0.727
17,A42U G50C,0.285
18,A42G A83U,0.185
19,A42G A83C,0.119
20,A42U G82C,0.264
21,A42U G82U,0.102
22,A42C U47A,0.0594
23,A42C G59A,0.213
24,A42C G59U,0.424

row,Variant,self-cleavage
1,A42U G73C,0.267
2,A43G G54A,0.378
3,A42U U46C,0.45
4,A42U U46G,0.287
5,A43G U79G,0.199
6,A43G U79C,0.0941
7,A43C G67A,0.322
8,A42C C66G,0.243
9,A42C C66U,0.489
10,A42C U46G,0.166
11,A42C U46A,0.107
12,A42U C62G,0.6
13,A42U C62A,0.618
14,A42G G67C,0.365
15,A43C G68C,0.283
16,A43G U47A,0.383
17,A42C C84A,0.17
18,A42C G82C,0
19,A42C G82U,0.138
20,A42C G82A,0.107
21,A43C U46G,0.415
22,A42G A56G,0.516
23,A42G A56U,0.698
24,A42G A56C,0.54

row,Variant,self-cleavage
1,A43C G81U,0
2,A43C G81C,0.0773
3,A42G G74C,0.095
4,A42G G74U,0.0791
5,A42C A71U,0.166
6,A42C A71C,0.332
7,A43G C66A,0.554
8,A42C G80A,0.234
9,A42C G80U,0.219
10,A42C C58A,0.364
11,A43G C64U,0.657
12,A43G C64G,0.644
13,A43C A70G,0.643
14,A42G G54C,0.614
15,A42G G54A,0.567
16,A43C C64A,0.38
17,A43C C64U,0.391
18,A43G C61U,0.739
19,A43G C61A,0.499
20,A42C G81A,0.104
21,A42C G81U,0.16
22,A43G G53U,0.577
23,A43G G53C,0.554
24,A42G G55U,0.354

row,Variant,self-cleavage
1,A42U A87U,0.56
2,A42G U79A,0.573
3,A43C G73U,0.604
4,A42G G76U,0.782
5,A42G G76C,0.672
6,A42C C62G,0.0898
7,A42C C62U,0.157
8,A43C C84U,0.135
9,A43G G52U,0.742
10,A42G U47G,0.7
11,A43G G74C,0.0791
12,A43G G74U,0.243
13,A42C G74U,0.0733
14,A42C G74A,0.0652
15,A42C G67C,0.17
16,A42C G67A,0.249
17,A42G U60A,0.302
18,A42G U60G,0.639
19,A42G U60C,0.617
20,A43G C49G,0.344
21,A42U G55C,0.87
22,A43G G68C,0.253
23,A43G G68A,0.665
24,A42U A45C,0.361

row,Variant,self-cleavage
1,A42U A45G,0.237
2,A42G C44G,0
3,A43C G54C,0.403
4,A42C U72G,0.256
5,A42U C61A,0.47
6,A42U C61U,0.445
7,A42U C61G,0.77
8,A43C C48G,0.449
9,A43C C48U,0.619
10,A43U A56U,0.475
11,A43U A56C,0.374
12,A42U C86U,0.58
13,A43C A83G,0.0923
14,A43C A83C,0.332
15,A43C A83U,0.161
16,A43C A71G,0.762
17,A42U C44A,0.688
18,A43G A77G,0.332
19,A43G A77C,0.0723
20,A42C C61A,0.312
21,A42C C61G,0.269
22,A42C C61U,0.199
23,A42G C84G,0.314
24,A42C A87G,0.219

row,Variant,self-cleavage
1,A42C A87C,0.367
2,A43G A78U,0.178
3,A43G A78C,0.0415
4,A43C A87C,0.407
5,A43C A87G,0.306
6,A43G A51U,0.646
7,A43G A51C,0.745
8,A43C G55U,0.748
9,A43G C44A,0.684
10,A42U C63G,0.504
11,A42U C63U,0.506
12,A42G C75G,0
13,A43G G81A,0.0941
14,A42U C58U,0.271
15,A42U C58G,0.443
16,A42U C58A,0.481
17,A42G A51U,0.464
18,A42G A51C,0.831
19,A43C A51C,0.604
20,A43C A51U,0.324
21,A43C A51G,0.499
22,A42G C49A,0.302
23,A42G C49U,0.489
24,A42G C49G,0.358

row,Variant,self-cleavage
1,A42C C63A,0.277
2,A42C C63G,0.208
3,A42U G76A,0.764
4,A42U G76C,0.639
5,A42G G73U,0.147
6,A42G G73A,0.192
7,A43G A56G,0.26
8,A42G C58G,0.554
9,A42G C58U,0.617
10,A43C U69G,0.68
11,A42C A77G,0.156
12,A42C G76C,0.277
13,A42C G76A,0.113
14,A42C U69A,0.156
15,A42G C63G,0.504
16,A42G C63U,0.633
17,A42G C63A,0.359
18,A43G G80U,0.0916
19,A43G G80A,0.115
20,A42U G54C,0.381
21,A42U G54A,0.441
22,A42G G52A,0.483
23,A43G U72G,0.554
24,A43C G74A,0.509

row,Variant,self-cleavage
1,A43C G74U,0.415
2,A43C G74C,0.0811
3,A42G A43C,0.158
4,A42G A43G,0
5,A42G A43U,0.185
6,A42C G52A,0.399
7,A42C U79G,0.151
8,A42U G80C,0.166
9,A42U G80U,0.138
10,A42G C85A,0.745
11,A42G C85U,0.767
12,A43U,0.546
13,A43C,0.498
14,A43G,0.618
15,A42C C44A,0.285
16,A42C C44U,0.161
17,A42U C85U,0.541
18,A43G U65C,0.522
19,A43C A45G,0.643
20,A43C A45C,0.415
21,A42C U60A,0.189
22,A42C U60C,0.35
23,A42C U60G,0.269
24,A42U G52C,0.799

row,Variant,self-cleavage
1,A42U G52U,0.592
2,A42U G52A,0.612
3,A42G U72G,0.35
4,A42G U72C,0.475
5,A42U A51U,0.509
6,A42U A51G,0.508
7,A42U A77C,0.0519
8,A43C C62U,0.508
9,A43C C62G,0.322
10,A43C C62A,0.415
11,A42G A87U,0.479
12,A42G A87C,0.521
13,A43C A78C,0.0723
14,A43C A78G,0.0978
15,A42C C48U,0.26
16,A42C C48A,0.361
17,A43G C63U,0.615
18,A43G G55A,0.566
19,A43C U47G,0.302
20,A43C U47C,0.208
21,A43G A83G,0.215
22,A42U C66A,0.511
23,A42U C66G,0.386
24,A42U C66U,0.61

row,Variant,self-cleavage
1,A43C C85A,0.361
2,A43C C85U,0.475
3,A43C C85G,0.519
4,A43C G59U,0.639
5,A43C G59C,0.322
6,A43C U60C,0.532
7,A43C A56G,0.404
8,A43G U46A,0.782
9,A42U A78G,0.264
10,A42G C86U,0.697
11,A42G C86G,0.597
12,A42G C86A,0.697
13,A43C G52A,0.511
14,A43C G52C,0.386
15,A43C G52U,0.402
16,A42C A78C,0.169
17,A42C A78U,0.0449
18,A42U G74U,0.277
19,A42G C62A,0.35
20,A42G C62U,0.808
21,A43C C63G,0.185
22,A43C G80A,0.124
23,A42U U65C,0.657
24,A42C A45G,0.465

row,Variant,self-cleavage
1,A43G G59C,0.637
2,A43G G59U,0.601
3,A42U C49A,0.53
4,A42U C49G,0.312
5,A42U G59U,0.595
6,A42U G59A,0.845
7,A42U G59C,0.422
8,A42G G68A,0.441
9,A42G G68U,0.403
10,A42C G54C,0.269
11,A42C G54U,0.312
12,A42U C57U,0.428
13,A42U C57G,0.489
14,A42C C64A,0.212
15,A42C C64U,0.208
16,A43C C66G,0.364
17,A43C C66A,0.302
18,A43C C66U,0.306
19,A42U C64A,0.639
20,A42C A43U,0.122
21,A42C A43G,0.0898
22,A42G U69C,0.462

# — the RNAGym collection of RNA variant scans (doi:10.7554/elife.80360)
